Laboratory results reported in patent publication US20110135636A1 (SYMPHOGEN A S, published 2011).

Columns and labels:
[1] = molecular target: T1, recombinant human EGFR extracellular domain with 6xHis (human, UniProt P00533 25-645); test: SPR competition, competitor 1260
T1 construct: In-house produced; also called 6xHis EGFR ECD; soluble human EGFR ECD; not shown: 6xHis tag
In short: (§1)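 SPR, Biacore 3000; anti-His capture of EGFR ECD; mAb 40 μg/ml reference injection; competitor saturation then mAb reinjection; Glycine-HCl 10 mM pH 2 strip; inhibition from Ru max report points ±2 s.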

[2] = molecular target: T1, recombinant human EGFR extracellular …; test: SPR competition, competitor 1277
In short: as §1

[3] = molecular target: T1, recombinant human EGFR extracellular …; test: SPR competition, competitor Ab-3
In short: as §1

[4] = molecular target: T1, recombinant human EGFR extracellular …; test: SPR competition, competitor 1261
In short: as §1

[5] = molecular target: T1, recombinant human EGFR extracellular …; test: SPR competition, competitor ICR10
In short: as §1

[6] = molecular target: T1, recombinant human EGFR extracellular …; test: SPR competition, competitor 1254
In short: as §1

[7] = molecular target: T1, recombinant human EGFR extracellular …; test: SPR competition, competitor Erbitux
In short: as §1

[8] = molecular target: T1, recombinant human EGFR extracellular …; test: SPR competition, competitor Ab-5
In short: as §1

[9] = molecular target: T1, recombinant human EGFR extracellular …; test: SPR competition, competitor 1024
In short: as §1

[10] = molecular target: T1, recombinant human EGFR extracellular …; test: SPR competition, competitor Vectibix
In short: as §1

[11] = molecular target: T1, recombinant human EGFR extracellular …; test: SPR competition, competitor 1347
In short: as §1

[12] = molecular target: T1, recombinant human EGFR extracellular …; test: SPR competition, competitor 1208
In short: as §1

[13] = molecular target: T1, recombinant human EGFR extracellular …; test: SPR competition, competitor 992 corr
In short: as §1

[14] = molecular target: T1, recombinant human EGFR extracellular …; test: SPR competition, competitor 1257
In short: as §1

[15] = molecular target: T1, recombinant human EGFR extracellular …; test: SPR competition, competitor Vectibix; remark: listed apart in the source
In short: as §1

[16] = molecular target: T1, recombinant human EGFR extracellular …; test: SPR competition, competitor 1344
In short: as §1

[17] = molecular target: T1, recombinant human EGFR extracellular …; test: SPR competition, competitor Ab-1
In short: as §1

[18] = molecular target: T1, recombinant human EGFR extracellular …; test: SPR competition, competitor 1320
In short: as §1

[19] = molecular target: T1, recombinant human EGFR extracellular …; test: SPR competition, competitor 1030corr
In short: as §1

[20] = molecular target: T1, recombinant human EGFR extracellular …; test: SPR competition, competitor 1284
In short: as §1

[21] = molecular target: T1, recombinant human EGFR extracellular …; test: SPR competition, competitor Erbitux; remark: listed apart in the source
In short: as §1

[22] = molecular target: T1, recombinant human EGFR extracellular …; test: SPR competition, competitor Ab-11
In short: as §1

[23] = molecular target: T1, recombinant human EGFR extracellular …; test: SPR competition, competitor Ab-10
In short: as §1

% inhibition [1] | % inhibition [2] | % inhibition [3] | % inhibition [4] | % inhibition [5] | % inhibition [6] | % inhibition [7] | % inhibition [8] | % inhibition [9] | % inhibition [10] | % inhibition [11] | % inhibition [12] | % inhibition [13] | % inhibition [14] | % inhibition [15] | % inhibition [16] | % inhibition [17] | % inhibition [18] | % inhibition [19] | % inhibition [20] | Binder | also measured
-4% | 0% | 2% | 4% | -3% | 3% | 2% | -3% | 93% | 6% | 5% | -3% | -27% | 2% | 14% | 2% | 3% | 97% | 0% | 5% | antibody 1320 (antibody, human IgG1, kappa, V domains shown, Chimeric IgG1 kappa) VH: QVQLQQPGAELVKPGASMKLSCKASGYTFTNYWMHWVKQRPGQGLEWIGEINPSNGRTNYNEKFKSKATLTVDKSSSTAYMQLSSLTSEDSGVYYCAKGGNYYDYDWDYWGQGTTLTVSS VL: DIQMTQTTSSLSASLGDRVTISCSASQDISNYLNWYQQKPDGTVKLLIYHTSTLHSGVPSRFSGSGSGTDYSLTISNLEPEDIATYYCQQYSKLPWTFGGGTKLEIKR | % inhibition [21]: 2%; % inhibition [22]: -6%; % inhibition [23]: -2%
41% | 6% | 11% | -23% | 17% | 0% | -4% | -1% | 4% | -6% | 70% | 0% | 7% | 19% | -5% | 38% | -3% | 2% | -2% | 61% | antibody 1347 (antibody, human IgG1, kappa, V domains shown, Chimeric IgG1 kappa) VH: QVQLKESGPGLVAPSQSLSITCTVSGFSLTGHGVNWVRQPPGKGLEWLGMIWGDGSTDYNSTLKSRLSISKDNSKSQVFLKMNSLQTDDTARYYCARGYGYLYYFDYWGQGTTLTVSS VL: ENVLTQSPAIMSASPGEKVTMTCRASSSVSSSYLHWYQQKSGASPKLWIYSTSNLASGVPARFSGSGSGTSYSLTVNSVETEDAATYYCHQYSGFPFTFGSGTKLELKR | % inhibition [21]: -4%; % inhibition [22]: 86%; % inhibition [23]: -1%
